{"source": "patent US20150335719A1", "about": "“Intravitreal Injection of a Chimeric Phage Endolysin Ply187; Protection from Staphylococcus aureus Endophthalmitis” (priority 2014, published 2015)", "key": {"[1]": {"details": "intravitreal injection alone"}, "[2]": {"test_system": "retinal cells", "test": "Cytotoxicity analysis in vivo (retinal cell death)", "details": "data not shown"}, "[3]": {"test_system": "S. aureus RN6390", "test": "Mouse S. aureus endophthalmitis: bacterial burden in eyes (plate count)", "type": "in vivo, C57BL/6 mice", "details": "24 h after treatment", "from_the_text": "FIGS. 4 A, B and C depict the effect of chimeric Ply187AN-KSH3b on bacterial growth in vivo and in the vitreous humor (VH) in vitro and with increasing inoculums in vitro respectively. […] Twenty-four hours after the treatment, the eyes were enucleated, homogenized and the bacterial burden was estimated via serial dilution plating. FIG. 4B depicts a test showing the effect of the vitreous humor on Ply187AN-KSH3b antimicrobial activity where Ply187AN-KSH3b was mixed with calf vitreous humor and inoculated with 10^5 CFU of S. aureus. The survival of the bacteria was enumerated by CFU count at 2, 4 and 6 h of incubation. Statistical analysis was performed using unpaired student's t test (*, p<0.05; **, p<0.005; ***, p<0.0005). […] An increasing number of dilutions (1:10,000 to 1:10) of logarithmic phase of S. aureus (RN6390 strain) were treated with Ply187AN-KSH3b for 1 h followed by CFU enumeration on TSA plates. Statistical analysis was performed using unpaired student's t test (*, p<0.05; **, p<0.005; ***, p<0.0005).\nThe bacterial burden in both chimeric Ply187AN-KSH3b- and vehicle-treated eyes was estimated using a bacterial plate count method. At the desired time point, the eyes were enucleated and homogenized in sterile PBS by stainless steel beads using Tissue lyser (Qiagen, Valencia, Calif.). […] The results were expressed as the mean number of CFU/eye ±SEM."}, "[4]": {"test_system": "inflammatory cytokines/chemokines in S. aureus-infected eyes", "test": "Mouse S. aureus endophthalmitis: inflammatory cytokines/chemokines by ELISA", "type": "in vivo, C57BL/6 mice", "experimental": "Following treatment with chimeric Ply187AN-KSH3b or EB (EB C), the eyes (n=4 per time point) were enucleated and 10 μg protein lysate was used for the detection of indicated inflammatory cytokines/chemokines by ELISA. *p<0.05, **p<0.005 (student t-test, SA or EB vs. Ply187AN-KSH3b-treated)\nTo measure the inflammatory cytokines, retinal extracts were processed by homogenization in 250 μl of PBS, followed by centrifugation at 12,000×g for 10 min. PBS-injected mice were used as normal controls (PBS C) and EB-treated mice were used as vehicle controls (EB C). The protein concentration of the retinal lysate was determined by the Micro BCA™ protein assay kit (Thermoscientific, Rockford, Ill.). Equal amounts of protein were used to perform the ELISA, per the manufacturer's instructions (BD biosciences, San Diego, Calif. (IL-6, IL1β & TNFα) and R & D systems, Minneapolis, Minn. (MIP2 & KC)."}, "[5]": {"test_system": "S. aureus USA 300 (CA-MRSA)", "test": "MIC against S. aureus strains (Table 1)", "type": "cell-based, Staphylococcus aureus", "details": "mean of three experiments ± SEM", "experimental": "(§1) For in vivo studies, an antibiotic sensitive S. aureus (SA) strain RN6390 was used to induce endophthalmitis; whereas, the in vitro studies were performed using antibiotic-resistant strains (Table 1), including USA300, a community-associated methicillin resistant S. aureus (CA-MRSA), and three clinical isolates R2932 (CA-MRSA), R2952 and R3000 (both being hospital-associated MRSA, […]), […]) kindly provided by Dr. Michael J. Rybak (Department of Pharmaceutical Sciences, Wayne State University, Detroit, Mich.). All bacteria were routinely cultured in TSB broth (Tryptic Soy broth, Sigma, St Louis, Mo.) or on TSB agar plates.\n(§2) To verify and quantify the lytic activity against live S. aureus, we have tested Ply187AN-KSH3b in the Turbidity Reduction Assay. The turbidity assay measures the drop in optical density (OD) resulting from lysis of the target bacteria with the phage endolysin-derived protein. Turbidity reduction assays by chimeric Ply187AN-KSH3b were performed in a 96 well plate as described previously by Becker et al. (2009a, 2009b, supra). Briefly, S. aureus strains/isolates RN6390, USA 300, and clinical isolates R2932, R2952 and R3000 were grown to logarithmic phase (OD600 0.4-0.6) at 37° C. in tryptic Soy broth (TSB). The culture was harvested by centrifugation and the pellet was resuspended in assay buffer (400 mM NaCl, 20 mM Tris HCl, 1% glycerol, pH 7.5). Bacterial cultures (100 μl/well) were mixed with 100 μl of (as per MIC) of chimeric Ply187AN-KSH3b protein diluted in the same assay buffer. The reduction in the turbidity was measured after every 5 min up to 1 h using a micro plate reader. EB diluted in the same assay buffer (without chimeric Ply187AN-KSH3b protein) was used as a control (EB C). Resistance development against chimeric Ply187AN-KSH3b was tested using repeated exposure in an MIC assay as described by Rodriguez-Rubio and co-workers (Rodriguez-Rubio et al., PLoS One 8:e64671.). In brief, bacterial cultures (10^5 CFU/well) were exposed overnight to a 2-fold serial dilution of chimeric Ply187AN-KSH3b, lysostaphin, and gentamicin, where the latter serve as controls. In every round, 100 μl culture from the wells with growth (½ MIC value) were inoculated into fresh TSB and grown up to logarithmic phase. These cultures were used for the next round of MIC exposure. Bacteria surviving after 10 rounds were grown for an additional 5 rounds in TSB without any selection pressure to allow phenotype-reversion, then MIC were performed to measure the sensitivity to the chimeric Ply187AN-KSH3b after non-selective growth."}, "[6]": {"test_system": "S. aureus RN6390 (MSSA)", "test": "MIC against S. aureus strains (Table 1)", "type": "cell-based, Staphylococcus aureus", "details": "mean of three experiments ± SEM", "experimental": "as §1, §2"}, "[7]": {"test_system": "S. aureus R 2932 (CA-MRSA)", "test": "MIC against S. aureus strains (Table 1)", "type": "cell-based, Staphylococcus aureus", "details": "mean of three experiments ± SEM", "experimental": "as §1, §2"}, "[8]": {"details": "6 h and 12 h treatment, vs vehicle-treated and S. aureus control eyes"}}}
{"molecule": "Ply187AN-KSH3b: staphylococcal peptidoglycan hydrolase fusion protein: endopeptidase domain of prophage endolysin Ply187 plus SH3b cell wall-binding domain of phage K endolysin LysK (SEQ ID NO:1) (protein, Chemically Synthesized Fusion Protein) MALPKTGKPTAKQVVDWAINLIGSGVDVDGYYGRQCWDLPNYIFNRYWNFKTPGNARDMAWYRYPEGFKVFRNTSDFVPKPGDIAVWTGGNYNWNTWGHTGIVVGPSTKSYFYSVDQNWNNSNSYVGSPAAKIKHSYFGVTHFVRPAYKAEPKPTPPLESTPATRPVTGSWKKNQYGTWYKPENATFVNGNQPIVTRIGSPFLNAPVGGNLPAGATIVYDEVCIQAGHIWIGYNAYNGNRVYCPVRTCQGVPPNQIPGVAWGVFKVEHHHHHH", "values": [{"measurement": "inflammatory response in the eye", "setting": "[1]", "value": "does not evoke an inflammatory response"}, {"measurement": "retinal cell death in vivo", "setting": "[2]", "value": "does not cause retinal cell death"}, {"measurement": "bacterial burden recovered", "setting": "[3]; treatment 6 h post infection", "value": "3.6×10^3 CFU/eye"}, {"measurement": "bacterial burden recovered", "setting": "[3]; treatment 12 h post infection", "value": "2.9×10^4 CFU/eye"}, {"measurement": "level of IL-1β", "setting": "[4]; [8]", "value": "dramatically reduced levels"}, {"measurement": "level of IL-6", "setting": "[4]; [8]", "value": "dramatically reduced levels"}, {"measurement": "level of KC (CXCL1)", "setting": "[4]; [8]", "value": "dramatically reduced levels"}, {"measurement": "level of MIP2 (CXCL2)", "setting": "[4]; [8]", "value": "dramatically reduced levels"}, {"measurement": "level of TNFα", "setting": "[4]; [8]", "value": "dramatically reduced levels"}, {"measurement": "MIP-2 reduction, 6 h compared with 12 h treatment", "setting": "[4]; 6 h vs. 12 h treatment", "value": "greater reduction after 6 h vs. 12 h treatment"}, {"measurement": "MIC", "setting": "[5]", "value": "4.16 ± 1.04", "unit": "µg/mL"}, {"measurement": "MIC", "setting": "[6]", "value": "4.16 ± 1.04", "unit": "µg/mL"}, {"measurement": "MIC", "setting": "[7]", "value": "4.16 ± 1.04", "unit": "µg/mL"}]}
